First the molecules themselves.
B1: 22H10A (antibody, V domains shown)
VH: EMQLVESGGGLVKPGGSLRLSCAASGFTFSSYSMNWVRQAPGKGLEWVSSISTRKNYIYYADSVQGRFIFSRDNAKNALYLQMNSLRAEDSAVYYCTRGGYIRSPNAFDIWGQGTMVTVSS
VL: QTVVTQEPSLTVSPGGTVTLTCASSTGTVTSGYFPNWLQQKPGQAPRALIYSINNKHFWTPARFSGSLLGGKAALTLSGVQPEDEAEYYCLLYYGGAWVFGGGTKLTVL
B2: 17D08A (antibody, V domains shown)
VH: EVQLVESGGGLVQPGGSLKLSCAASGFTFSGSAIHWVRQASGKGLEWVGRIRSKVNSYATAYAASVKGRFTISRDDSKNTAYLQMNSLKTEDTAVYYCTRHAPNFDAFDIWGQGTMVTVSS
VL: QSVLTQPPSVSAAPGQKVTISCSGYSSNIGNHYVSWYQQLPGTAPKFFIYDNNKRPSGIPDRFSGSKSGTSATLGITGLQTGDEADYYCGTWDSSLITYVFGTGTKVTVL
B3: 21G10A (antibody, V domains shown)
VH: EVQLVESGGGSVQPGGSLRLSCAASGFTFSSYWMHWVRQAPGKGLVWVSRINSDGSITTYADSVKGRFTISRDNAKNTLYLQMNSLRAEDTAVYYCARGGGSLDYWGQGTLVTVSS
VL: B2 VL with Y25S, H32Y, F47L, F48L, I97S, T98A, Y99V, T103G, V107L
B4: 15M13A (antibody, V domains shown)
VH: QVTLKESGPGILQPSQTLSLTCSFSGFSLSTFGMGVGWIRQPSGKGLEWLAHIWWDDDKYYNPALKSRLTISKDTSKNQVFLKIANVDTADTATYYCARLGYYPYWFFDVWGTGTTVTVSS
VL: B2 VL with Y25S, F47L, F48L, S94T, I97S, T98A, Y99V, T103G, V107L
B5: 20O11A (antibody, V domains shown)
VH: B3 VH with S11L, V46A, S49A, I57S, T59S, S102L, L103F
VL: B2 VL with Y25S, F47L, F48L, I97G, T98A, Y99V, V100L, T103G, V107L
B6: 21F12A (antibody, V domains shown)
VH: B3 VH with V5A, A40V, I57T
VL: B2 VL with Y25S, H32Y, F47L, F48L, Q80R, I97S, T98A, Y99V, T103G, V107L
B7: 17H05A (antibody, V domains shown)
VH: B3 VH with A40V, T59S, D90N
VL: B2 VL with Y25S, H32Y, F47L, F48L, N53H, I97S, T98A, Y99V, T103G, V107L
B8: 18F06A (antibody, V domains shown)
VH: B3 VH with S11L, S53R, I57T, T59S, S85R, S102A, L103F, Y105I, L111M
VL: QSVLTQPPSVSAAPGQKVTISCSGSSSNIGNYYVSWYQQLPGTAPKLLIYDNNKRPSGIPDRFSASKSGTSATLGITGLQTGDEADYYCGTWDDSLSAVVFGGGTKLTVL
B9: 17P04A(mIgG2a) (antibody)
heavy: EVQLVESGGGLVKPGGSLRLSCAASGFTLSSFSMNWVRQAPGKGLEWVSSISSRRTYIYYADSAKGRFTFSRDNAKNSLYLQMNSLRAEDSAVYYCARGGYIGSPNAYDIWGQGTMVTVSSASTKGPSVFPLAPCSRSTSESTAALGCLVKDYFPEPVTVSWNSGALTSGVHTFPAVLQSSGLYSLSSVVTVPSSNFGTQTYTCNVDHKPSNTKVDKTVERKCPPCKCPAPNLLGGPSVFIFPPKIKDVLMISLSPIVTCVVVDVSEDDPDVQISWFVNNVEVHTAQTQTHREDYNSTLRVVSALPIQHQDWMSGKEFKCKVNNKDLPAPIERTISKPKGSVRAPQVYVLPPPEEEMTKKQVTLTCMVTDFMPEDIYVEWTNNGKTELNYKNTEPVLDSDGSYFMYSKLRVEKKNWVERNSYSCSVVHEGLHNHHTTKSFSRTPGK
light: QTVVTQEPSLTVSPGGTVTLTCASSTGAVTSDYYPNWFQQKPGQAPRALIYSASTKHSWTPARFSGSLLGGKAALTLSGVQPEDEADYYCLLYYGGAWVFGGGTKLTVLGQPKAAPSVTLFPPSSEELQANKATLVCLISDFYPGAVTVAWKADSSPVKAGVETTTPSKQSNNKYAASSYLSLTPEQWKSHRSYSCQVTHEGSTVEKTVAPTECS
notes: chimeric: human F(ab')2, mouse IgG2a CH2-CH3, recombinant
B10: 18P01A(mIgG2a) (antibody)
heavy: EVQLVESGGGLVQPGGSLKLSCAVSGFTFSGSAMHWVRQASGKGLEWVGRIRSKANSYATAYAASVKGRFTISRDDSKNTAFLQMNSLKTEDTAVYYCTSHAPNFDAFDIWGQGTMVTVSSASTKGPSVFPLAPCSRSTSESTAALGCLVKDYFPEPVTVSWNSGALTSGVHTFPAVLQSSGLYSLSSVVTVPSSNFGTQTYTCNVDHKPSNTKVDKTVERKCPPCKCPAPNLLGGPSVFIFPPKIKDVLMISLSPIVTCVVVDVSEDDPDVQISWFVNNVEVHTAQTQTHREDYNSTLRVVSALPIQHQDWMSGKEFKCKVNNKDLPAPIERTISKPKGSVRAPQVYVLPPPEEEMTKKQVTLTCMVTDFMPEDIYVEWTNNGKTELNYKNTEPVLDSDGSYFMYSKLRVEKKNWVERNSYSCSVVHEGLHNHHTTKSFSRTPGK
light: QSVLTQPPSVSAAPGQKVTISCSGSSSNIGNHYVSWYQQLPGTAPKFFIYDNSKRPSGIPDRFSGSKSGTSATLGITGLQTGDEADYYCGTWDSSLSTYVFGTGTKVTVLGQPKAAPSVTLFPPSSEELQANKATLVCLISDFYPGAVTVAWKADSSPVKAGVETTTPSKQSNNKYAASSYLSLTPEQWKSHRSYSCQVTHEGSTVEKTVAPTECS
notes: as for B9
B11: 17P04A(hIgG1) (antibody)
heavy: not shown
light: B9 light
notes: fully human IgG1 lambda, expressed in CHO cells; also called Fully human 17P04A (hlgG1)
B12: 18P01A(hIgG1) (antibody)
heavy: not shown
light: B10 light
notes: fully human IgG1 lambda, expressed in CHO cells; also called Fully human 18P01A (hlgG1); fully human 18P01A

Numbering of substitutions follows the chain as printed.

One assay addresses T1, Aβ1-42 (rPeptide, A-1167-2) (UniProt P05067 672-713).
T1 construct: domain: Aβ1-42; also called Abeta 1-42
Briefly: direct ELISA, coated Aβ1-42. The method, then: (§1) Direct ELISA was used to test each antibody's affinity for Aβ₁₋₄₂ and pyroglutamate-modified Aβ (Aβₚ₃₋₄₂). Plates were coated with 0.5 μM of Aβ₁₋₄₂ (rPeptide, A-1167-2) or Aβₚ₃₋₄₂ (AnaSpec, AS-29907-01) for 2 h at 4° C. Diluents of antibodies (3-fold serial dilutions with concentrations in the range of 0-100 nM) were added to the plate for 1 h at RT. Binding of antibody to immobilized Aβ on each plate was detected by HRP-labeled secondary antibody and TMB substrate, as described in Example 2.
(In general: An ELISA detects its analyte on a solid surface through an enzyme-linked reagent.)
By EC50 is commonly meant the concentration at which the effect is half-maximal. Higher therefore signals a need for much substance. In turn, B1 yielded an EC50 of 0.075 nM.

B2 registered an EC50 of 0.075 nM.

For the molecule B3, the EC50 turned out to be 0.042 nM.

B4 yielded an EC50 of 0.038 nM.

B5 yielded an EC50 of 0.05 nM.

Molecule B6 registered an EC50 of 0.048 nM. The EC50 values of the last two molecules are within 1.5-fold of each other.

For B7, the EC50 came to 0.051 nM. This EC50 and that of the molecule before are within 1.5-fold of each other.

B8 displayed an EC50 of 0.068 nM.

The next assay has as its target T2, HiLyte488 labelled Aβ1-42 protofibrils (UniProt P05067 672-713, HiLyte488 fluorophore on part of the peptides (labelled and unlabelled Aβ1-42 monomers mixed 1:5)). Nature of the assay: cell-based or functional assay.
Take B9: the “ADCP (RFU)” value is 375000 RFU.

In the case of B10, the “ADCP (RFU)” value came to 488000 RFU.

A further assay concerns the target T3, pyroglutamate-modified Aβ (Aβp3-42) (AnaSpec, AS-29907-01) (UniProt P05067 674-713, pyroglutamate at Aβ position 3 (the N-terminus)).
T3 construct: domain: Aβp3-42; also called Abeta p3-42
Nature of the assay: direct ELISA, coated Aβp3-42.
In turn, B11 showed an EC50 of 38.7 nM.

B12 showed an EC50 of 196 nM.

Another assay addresses T2, HiLyte488 labelled Aβ1-42 protofibrils. Nature of the assay: cell-based or functional assay. This is another data set of the same source.
In the case of B1, the “ADCP (RFU)” value was 99100 RFU.

B2: the “ADCP (RFU)” value was found to be 194000 RFU.

B3: the “ADCP (RFU)” value was found to be 245000 RFU.

B4: the “ADCP (RFU)” value worked out at 273000 RFU.

Turning to B5, the “ADCP (RFU)” value was determined as 257000 RFU.

For the molecule B6, the “ADCP (RFU)” value is 262000 RFU.

For the molecule B7, the “ADCP (RFU)” value stood at 279000 RFU.

Consider B8, for which the “ADCP (RFU)” value is 126000 RFU.

In the next assay the target is T1, Aβ1-42 (rPeptide, A-1167-2). Nature of the assay: direct ELISA, coated Aβ1-42. The source holds these as a separate data set.
B9 gave an EC50 of 0.057 nM. In other words, the picomolar range.

B10 showed an EC50 of 0.087 nM.

A further assay deals with T4, biotin-labelled Aβ1-40 monomer (AnaSpec, AS-61483-01) (UniProt P05067 672-711, biotin label, position not stated).
T4 construct: domain: Aβ1-40; also called biotin-conjugated Aβ40 monomer; biotin-Aβ monomer
Nature of the assay: capture ELISA, coated antibody, biotin-Aβ1-40 monomer.
Consider B11, for which the midpoint of the response, the EC50, lay at 33.8 nM.

For B12, the EC50 turned out to be 917 nM.

Another assay has as its target T4, biotin-labelled Aβ1-40 monomer …. The assay is described as above. This is another data set of the same source. The method, then:
(§2) A 96-well plate was coated with 5 μg/mL of antibodies overnight at RT. The plate was then treated with diluents of biotin-labelled Aβ₁₋₄₀ monomers (AnaSpec, AS-61483-01, 4-fold serial dilutions with concentrations in the range of 0-1000 nM) for 1 h at RT. The binding of biotin-labelled Aβ₁₋₄₀ monomers with immobilized antibody was detected by HRP-conjugated streptavidin and TMB, as described in Example 2.
The molecule B1 returned an EC50 of 0.07 nM.

B2: it took 0.34 nM to reach a half-maximal effect (EC50).

Turning to B3, a half-maximal response (EC50) required 0.02 nM.

For the molecule B4, the response was half-maximal at 0.78 nM (EC50). Compared with the last molecule, the EC50 is about 39-fold higher.

In turn, B5 registered an EC50 of 0.01 nM.

On to B6, for which a half-maximal response (EC50) required 0.01 nM. In other words, the picomolar range.

B7 returned an EC50 of 0.02 nM.

A further assay deals with T1, Aβ1-42 (rPeptide, A-1167-2). Nature of the assay: direct ELISA, coated Aβ1-42. The source holds these as a separate data set.
Take B12: the “fold increase of EC50 against the original chimeric 18P01A” value is above 800 fold.

The target is the same in a further assay. Briefly: direct ELISA, coated Aβ1-42. The source holds these as a separate data set.
In turn, B11 returned an EC50 of 0.062 nM.

With B12, the EC50 turned out to be 50 nM.

For another assay, the target named is T3, pyroglutamate-modified Aβ (Aβp3-42) …. Nature of the assay: direct ELISA, coated Aβp3-42. This is another data set of the same source. The procedure:
After 3 washes with 1× Phosphate-Buffered Saline, 0.1% Tween 20 (PBST), each plate was blocked with 1% BSA in PBS for 1 h at room temperature (RT). Diluents of Aβ antibodies (3-fold serial dilutions with concentrations in the range of 0-100 nM) were added to plates. The plate was incubated for 1 h at RT and washed 3 times. The plate was then incubated with HRP conjugated goat anti-mouse IgG (Thermo Fisher Scientific, G-21040; thermofisher.com) 1:5000 diluted in 1% BSA for 1 h at RT and washed 3 times. TMB (3,3′,5,5;-tetramethylbenzidine) Stabilized Chromogen substrate solution (Life Technologies (Thermo Fisher Scientific) SB02) was added to the plate, and the reaction was stopped by adding 1M sulfuric acid. The absorbance at 450 nm was measured in a plate reader.
as §1
In turn, B9 displayed an EC50 of 19.4 nM. This lies in the double-digit nanomolar range.

The target in a further assay is T4, biotin-labelled Aβ1-40 monomer …. Briefly: capture ELISA, coated antibody, biotin-Aβ1-40 monomer. This is another data set of the same source. The procedure: The plate was incubated for 1 h at RT and washed 3 times with PBST. The plate was then incubated with HRP-conjugated streptavidin (Thermo Fisher Scientific, SNN2004) at 1:5000 diluted in 1% BSA for 20 min at RT and washed 3 times. TMB Stabilized Chromogen substrate solution (Life Technologies, SB02) was added to the plate, and the reaction was stopped by adding 1M sulfuric acid. The absorbance at 450 nm was measured in a plate reader.
as §2
As for B9, the EC50 worked out at 59 nM.

Regarding B10, the EC50 came to 248 nM.

The record behind these values is US20240301046A1 (MABWELL THERAPEUTICS, published 2024).
